According to the supplement of paper PMC12455559:
± gives the standard deviation of the averaged measurements.

How the values were obtained:
[1] = PET hydrolysis, aromatic products released after 48 h (umol product/mg enzyme); higher = more PET depolymerization activity
In short: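 Sealed plates containing 3.5 mg PET (amorphous film or crystalline powder), 450 μL buffer and 5 μg (50 μL) tagless candidate enzyme were held 48 h at 40 or 60 °C with no shaking. Supernatants were then read at 260 and 280 nm against buffer blanks. The aromatic product detected this way, per mg enzyme, defines PET hydrolysis activity.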

[2] = purified protein yield per well (BCA); higher = higher soluble expression
In short: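 Candidate enzymes were expressed in E. coli C41(DE3) in 2 mL autoinduction cultures with 100 µg/mL kanamycin, at 37 °C for 2 h and then 18 °C for 40 h. Cells were lysed, and protein was bound to Ni-charged magnetic beads and released by SUMO protease cleavage on an OT-2 robot. The read-out is purified protein yield per well, measured with the Pierce Rapid Gold BCA kit. Values below 25 ug (0.1 mg/mL) are below the detection threshold.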

[3] = melting temperature (DSF); higher = more thermostable
In short: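 On a Bio-Rad CFX96, fluorescence of 45 μL enzyme (0 to 0.3 mg/mL) mixed with 5 μL 5X Sypro Orange in sealed PCR plates was followed from 25 °C through 250 cycles of 0.3 °C, with a 0.3 °C/s ramp. The enzymes had been expressed in E. coli C41(DE3), taken up on nickel beads and released by SUMO protease. Melting temperature, measured by differential scanning fluorimetry, is the value given.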

[4] = substrate: cryPow, 40 °C, pH 4.5
[5] = substrate: cryPow, 40 °C, pH 5.5
[6] = substrate: cryPow, 40 °C, pH 6.5
[7] = substrate: cryPow, 40 °C, pH 7.5
[8] = substrate: cryPow, 60 °C, pH 4.5
[9] = substrate: cryPow, 60 °C, pH 5.5
[10] = substrate: cryPow, 60 °C, pH 6.5
[11] = substrate: cryPow, 60 °C, pH 7.5
[12] = substrate: aFilm, 40 °C, pH 5.5
[13] = substrate: aFilm, 40 °C, pH 6.5
[14] = substrate: aFilm, 40 °C, pH 7.5
[15] = substrate: aFilm, 60 °C, pH 5.5
[16] = substrate: aFilm, 60 °C, pH 6.5
[17] = substrate: aFilm, 60 °C, pH 7.5
[18] = substrate: cryPow, 40 °C, pH 8.5

Row | Sequence | PET hydrolysis [1, 4] | PET hydrolysis [1, 5] | PET hydrolysis [1, 6] | PET hydrolysis [1, 7] | PET hydrolysis [1, 8] | PET hydrolysis [1, 9] | PET hydrolysis [1, 10] | PET hydrolysis [1, 11] | purified protein yield per well [2] | melting temperature [3] | PET hydrolysis [1, 12] | PET hydrolysis [1, 13] | PET hydrolysis [1, 14] | PET hydrolysis ([1]; substrate: aFilm, 40 °C, pH 8.5) | PET hydrolysis [1, 15] | PET hydrolysis [1, 16] | PET hydrolysis [1, 17] | PET hydrolysis ([1]; substrate: aFilm, 60 °C, pH 8.5) | PET hydrolysis [1, 18] | PET hydrolysis ([1]; substrate: cryPow, 60 °C, pH 8.5) | PET hydrolysis ([1]; substrate: aFilm, 40 °C, pH 4.5) | PET hydrolysis ([1]; substrate: aFilm, 60 °C, pH 4.5)
1 | ADSPYQRGPDPTLASVAATRGPFATTQATVPAGNGFNGGYVYYPTDTSQGTWGAVAIVPGYSALFANEEAWMGPWLASFGFVVIGIETNSRTDGADARATQLLAALDYLTRTSPIRNRVDPNRLSVMGHSAGGAGTLLAALRRPTLKAAVGLAPGTPGNNLNMSTTQVPTMLLSGQNDGTVTPSYVQGIYNTLPAGVEHAWAELAGNDHLSFTRSNPTEMRLLIPWLKTFLDNDTRYTQFLCPLADSTGVSRYSATCPLVPPDGPTPPPTTAPPTTTPPTSTPPTTSAPTTPPPSGAACTATYRTVNSWSGGFQGEVTVTAGTAAVNGWTVTWNLSNGQSISQVWNGTLSTSGSTATVRNVSYNGSLAPGGTTTFGFLGSGTPANASPTCASP [ESM014] | < 3 | < 3 | < 3 | < 3 | < 3 | < 3 | < 3 | < 3 | 85.8 µg | 59.2 C |  |  |  |  |  |  |  |  |  |  |  | 
2 | ADTPYERGPNPSESLIEQRRGNYDIAQRSISRFSSDGFRNGTIYYPTDTSDGKFGVIAISPGYTAGESSIAWLGSRIASFGFVVVTINTTTRYDQPRQRSTQLLAALDHAMNDSVVGPLIDPERQAVMGHSMGGGGALQAAESRPEIDAVVALTPWNLKKNWDGVDAATLIIGAERDTVASVRTHSIPFYESLTQAEQRGYLELRGASHFAPNVSNTTIAKYSIAWMKRYLDNDDRYDQFLNPGPAVGYASGVSDYRLQ [DP003] |  | < 3 | < 3 | < 3 |  | < 3 | < 3 | < 3 | 185 µg | 42.4 C | < 3 | < 3 | < 3 | 3 ± 4.2 | < 3 | < 3 | < 3 | < 3 | < 3 | < 3 |  | 
3 | AEAADNPYQRGPDPTLASVAATRGPFATAQATVPAGNGFNGGYVYYPTDTSLGTWGAVAIVPGYSALFADEEAWMGPWLASFGFVVLGIETNSRTDGADARATQLLAALDYLTQSSPVRHRVDANRLGVMGHSAGGAGTLMAALRRPSLKSAVGLAPGAPGNSLNMSTTQVPTMLISGQNDGTVTPSYVQGIYNTLPATVEHAWAELAGNDHLSFTRPNPTEMRILIPWLKIFLDNDTRYTQFLCPLADSTGVSRYSATCPLVPPGGPTAPPTVTPPPPTPTTPSPTTPPTSAACTATYRTVNSWSGGFQGEVTVTAGRAAINGWTVRWDLGNGQSISQVWNGTLSTSGSTATVRNVSYNGSLAPAASTGFGFLGTGAPAIPRLTCTSP [ESM037] | < 3 | < 3 | < 3 | < 3 | < 3 | < 3 | < 3 | < 3 | 358 µg | 73.3 C | < 3 | < 3 | < 3 |  | < 3 | < 3 | < 3 |  |  |  | < 3 | < 3
4 | AENPHQRGPNPTVAALEAAAGPFAVAKVSVPGGHGFGGGTITYPTDTSQGTFGAVAVSPGFIESEGAIAWFGPRLASHGFVVITISTNGLFDQPDARGAQLLAALDYVTKSSAVRDRVDPARLAVMGHSMGGGGALYATAQRPALKASIPLLAWSNTKSWGSVRVPTMVIGAENDFIASVGSHSEPFYQSLGGEKAYLEMNDADHFVTNSPTPTVGKLTVSWLKRFMDNDTRYDQFLCPAPPVGGPISEYRDTCPYI [DP017] |  | 4 | 11 | 13 |  |  |  |  | 30 µg | 49.6 C |  |  |  |  |  |  |  |  | 6 |  |  | 
5 | AENPYERGPAPTTASIEALRGPFATAETTVSSLSVRGFGGGTIHYPTSTAEGTFGAVAVAPGYTASQSSLSWLGPRLASQGFVVFVIDTNSRYDQPASRGDQLLAALDYLTTSSSVRGRIDASRLGVMGHSMGGGGALEATKDRPSLQASIPLTPWNTTKTWSTVRTPTLVVGAEDDSVAPVRTHAEPFYEGLPSTLDKAYLELAGASHFAPNSSNTTIAKYSIAWLKRFVDDDTRYEQFLCPAPRGTAISEYRDTCPHP [TEP110] | < 3 | < 3 | < 3 | < 3 |  |  |  |  | 48.9 µg | 47.2 C |  |  |  |  |  |  |  |  |  |  |  | 
6 | AENPYQRGPDPTLAALAASAGPYPIMETVVGSAEVTNFGGASIYYPAGTADGTFGGVAVTPGFLGPRSTMEWVARRVASHGFVVINIDTLERNDTPPLRARQMLAALDYLTGASAVRDRVDPTRLAVMGHSMGGGGSLQASRQRPQLKAAVPLTPWSNDKDFSADVVPTLIIGAELDDTAPVAEHAEPFFESIAAARKAYLELNDAEHRAPIRTNETIGTYSVAWLKRFVDDDTRYEQFLCPPPAPSAAIEEFRGTCPSS [TEP106] | < 3 | < 3 | < 3 | < 3 | < 3 | < 3 | < 3 | < 3 | 87.7 µg | 41.5 C |  |  |  |  |  |  |  |  |  |  |  | 
7 | AESPYQRGPDPTRESVAASRGTFATAEVSVPAGNGFGGGVIYYPTDTSQGTFGGVAIVPGYTATWAAEGAWMGHWLASFGFVVIGIDTINRNDWDTARGTQLLAALDYLTQRSSVRNRVDANRLAVMGHSMGGGGAMHAALQRPSLKAAIGLAPFSPSQNLTNMRVPTLLVAGQNDTTTTPTSILNLYNGIPATTEKAYLELTGAGHGFPTSANSVMTRKVIPWLKIFVDHDTRYHQFLCPLLDWTGITAYRSSCPLNPPGGPTGSTFSLVGADSGKCVDVPGASRTNGTGLITYTCNGASNQRWTQTAANELRIYDNSKCMEAGTSAGSRAVITSCTGGNGQKWTFNANGTITHAQSGLCLYVNGGSTANQAAVIVWTCHGGSNQVWTRQP [TEP163] | < 3 | 8 | 8 | 5 | < 3 | < 3 | 3 | < 3 | 148 µg | 73 C |  |  |  |  |  |  |  |  |  |  |  | 
